Entries after “also recorded” stand apart in the source; their conditions may differ.
B1: M255R: PEX19 CTD variant M255R (helix α4) (protein)
chain: GMDEGDGEGNILPIMQSIMQNLLSKDVLYPSLKEITEKYPEWLQSHRESLPPEQFEKYQEQHSVMCKICEQFEAETPTDSETTQKARFEMVLDLRQQLQDLGHPPKELAGEMPPGLNFDLDALNLSGPPGASGEQCLIM
modifications: left off: His6, end not stated, cleaved
B2: PEX19 C296S: full-length PEX19 variant which lacks the farnesylation site (protein, UniProt P40855 1-299, looked up, variant C296S)
chain: MAAAEEGCSVGAEADRELEELLESALDDFDKAKPSPAPPSTTTAPDASGPQKRSPGDTAKDALFASQEKFFQELFDSELASQATAEFEKAMKELAEEEPHLVEQFQKLSEAAGRVGSDMTSQQEFTSCLKETLSGLAKNATDLQNSSMSEEELTKAMEGLGMDEGDGEGNILPIMQSIMQNLLSKDVLYPSLKEITEKYPEWLQSHRESLPPEQFEKYQEQHSVMCKICEQFEAETPTDSETTQKARFEMVLDLMQQLQDLGHPPKELAGEMPPGLNFDLDALNLSGPPGASGEQSLIM
modifications: full-length

Experiments:
[1] = Hydrophobic interaction chromatography; assay type: physicochemical
Protocol: Purified PEX19 CTD and variants were adjusted to a buffer containing 650 mM (NH4)2SO4 and 500 μg protein was subjected to equilibrated Butyl Sepharose FF column (20 mM potassium phosphate, pH 6.5, 50 mM NaCl and 650 mM (NH4)2SO4). After washing, bound protein was eluted with linear decreasing (NH4)2SO4 concentrations (650–0 mM (NH4)2SO4, 20 ml). Eluted proteins were detected using 280 nm absorption. The binding strength is indicated by the elution volume and correlates with protein hydrophobicity.

[2] = tested on: PEX19-deficient human fibroblasts (ΔPEX19 T); experiment: Functional complementation of PEX19-deficient fibroblasts (peroxisomal protein import); assay type: cell-based; settings: full-length PEX19 variants, 72 h after transfection; for cells showing restored peroxisomal protein transport (functional complementation): at least 100 cells in three independent transfections, series of Fig. 3c
Excerpt: A bicistronic expression plasmid coding for eGFP-PTS1 and non-tagged PEX14 (pMF1220)[43] was kindly provided by Marc Fransen (Leuven, Belgium). pIRES2-HsPEX19-eGFP-PTS1 was constructed by replacing the open reading frame of PEX14 (BglII/SalI) with a DNA-cassette encoding the full-length open reading frame of human PEX19 as derived from BamHI/SalI digestion of pAH05 (ref. [44]). Single point mutations were introduced into the PEX19 sequence by Quickchange XL Site-directed Mutagenesis kit (Stratagene) using primer pairs (Supplementary Table 1). The bicistronic expression vectors coding for PEX19 variants and eGFP-PTS1 were transfected into the human cell-line ΔPEX19 T which was derived from PEX19-deficient Zellweger patient fibroblasts. ΔPEX19 T cells, characterized by a defect in peroxisome biogenesis were routinely authenticated by functional complementation assays as described below and checked for mycoplasma contamination using Venor GeM Advance Mycoplasm Detection Kit (Minerva Biolabs). The efficiency of transfection according to the Amaxa Cell Line Nucleofector Kit R protocol (Lonza Cologne AG) was always around 90%. After 72 h of transfection, cells were subjected to fluorescence and immunofluorescence microscopy using polyclonal antiserum against human PEX14 (ref. [45]) (1:400 diluted) or monoclonal antibodies against human PEX19 (BD Biosciences, MA5-17266 Thermo Scientific; 1:400 diluted). Statistical analysis was carried out from three independent transfections of each pIRES-PEX19-eGFP-PTS1 expression plasmid. Based on the appearance of eGFP-PTS1 fluorescence pattern, about 100 cells of each experiment were visually categorized into three classes, (i) full complementation of peroxisomal import as visualized by punctuate staining pattern, (ii) partial complementation as indicated by diffuse cytosolic staining with few dots, (iii) no complementation resulting in only cytosolic staining. All micrographs were recorded on a Zeiss Axioplan 2 microscope with a Zeiss Plan-Apochromat × 63/1.4 oil objective and an Axiocam MR digital camera, and were processed with AxioVision 4.6 software (Zeiss, Jena, Germany). The steady-state level of PEX19 expression was assessed by immunoblot analysis, using monoclonal mouse antibodies against HsPEX19 (BD Biosciences, MA5-17266; 1:1,000 diluted) (Supplementary Fig. 9).

[3] = Stability of purified protein in solution; assay type: physicochemical
[4] = tested on: PEX19-deficient human fibroblasts; experiment: Immunoblot analysis of PEX19 variants in transfected fibroblasts; assay type: cell-based
Excerpt: A bicistronic expression plasmid coding for eGFP-PTS1 and non-tagged PEX14 (pMF1220)[43] was kindly provided by Marc Fransen (Leuven, Belgium). pIRES2-HsPEX19-eGFP-PTS1 was constructed by replacing the open reading frame of PEX14 (BglII/SalI) with a DNA-cassette encoding the full-length open reading frame of human PEX19 as derived from BamHI/SalI digestion of pAH05 (ref. [44]). Single point mutations were introduced into the PEX19 sequence by Quickchange XL Site-directed Mutagenesis kit (Stratagene) using primer pairs (Supplementary Table 1). […] After 72 h of transfection, cells were subjected to fluorescence and immunofluorescence microscopy using polyclonal antiserum against human PEX14 (ref. [45]) (1:400 diluted) or monoclonal antibodies against human PEX19 (BD Biosciences, MA5-17266 Thermo Scientific; 1:400 diluted). […] Based on the appearance of eGFP-PTS1 fluorescence pattern, about 100 cells of each experiment were visually categorized into three classes, (i) full complementation of peroxisomal import as visualized by punctuate staining pattern, (ii) partial complementation as indicated by diffuse cytosolic staining with few dots, (iii) no complementation resulting in only cytosolic staining. […]

Molecule	elution volume after start of the gradient ([1]; Butyl Sepharose FF, linear decreasing (NH4)2SO4 650–0 mM, 20 ml, 20 mM potassium phosphate, pH 6.5, 50 mM NaCl, 280 nm, 500 μg protein)	hydrophobic interaction chromatography, effect on hydrophobicity (in words) ([1]; farnesylated vs non-farnesylated, compared to wild type)	functional complementation (in words) [2]	stability in solution after purification [3]	cells showing restored peroxisomal protein transport (functional complementation) [2]	cells showing restored peroxisomal protein transport (functional complementation) ([2]; listed as C296S)	expression and farnesylation in vivo [4]
B1	5.00 mL	most pronounced effects	not capable of rescuing the ΔPEX19 phenotype; also recorded: completely abolishes PEX19 function	not stable for long time in solution	–	–	–
B2	–	–	cannot fully restore PEX19 function	–	46%	50%	lacks the farnesylation site

From article PMC5353646, “Allosteric modulation of peroxisomal membrane protein recognition by farnesylation of the peroxisomal import receptor PEX19” (Nature Communications, 2017)
